Source: the nanobody polyreactivity screen of Harvey et al. (2022)

Assay: yeast display, Sf9 membrane polyspecificity reagent, FACS + sequencing; frameworks hold sequencing errors
Procedure, shortened: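 Polyreactivity labels are assigned by the sorting gate from which each nanobody was recovered. The gates were low and high (top ~1%), set on anti-HA fluorescence for expression and streptavidin fluorescence for reagent binding. Before sorting, galactose-induced (36–48 hours) yeast display cells were stained for 1 hour at 4 °C with 10% biotinylated, detergent-solubilized Sf9 membrane reagent.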

Sequence | polyreactivity (PSR sort gate)
QVQLVESGGGLVQAGGSLRLSCAASGSTFGRNAMGWYRQAPGKERELVAAISTSGSRTYYADSVKGRFTISRDNAKNTVYLQMNSLKPEDTAVYYCNAYGVSRGSYGTRGYWGQGTQVTVSS | high polyreactivity
QVQLVESGGGLVQAGGSLRLSCAASGSIFKNYAMGWYRQAPGKERELVAAITSGGRTYYADSVKGRFTISRDNAKNTVYLQMNSLKPEDTAVYYCAALGRYGYYYWGQGTQVTVSS | high polyreactivity
QVQLVESGGGLVQAGGSLRLICAASGRIFRRNVMGWYRQAPGKDRELVAAIRGTGSTTYADSVKGRFTISRDNAKNTVYLQMNSLKPEDTAVYYCNAYKGQTGGGGRYGYWGQGTQVTVSS | high polyreactivity
QVQLVESGGGLVQAGGSLRLSCAASGRTFSKYAMGWYRQAPGKERELVASITWSGGTTNYADSVKGRFTISRDNAKNTVYLQMNSLKPEDTAVYYCNADGYLAERFFIRLDEYRDYDYWGQGTQVTVSS | low polyreactivity
QVQLVESGGGLVQAGGSLRLSCAASGRTFQTNAMGWYRQAPGKERELVAAISWSGGRTYYADSVKGRFTISRDNAKNTVYLQMNSLKPEDTAVYYCAARQWYRYKVRFDYCGQGTQVTVSS | high polyreactivity
QVQLVESRGGLVQAGGSLRLSCAASGLTFKWYAMGWYRQAHGKERELVAAISRDGSTYYADSVKGRFTISRDNAKNTVYLQMNSLKPEDTAVYYCAAEPRSRRVLYDYWGQGTQVTVSS | high polyreactivity
QVQLVESGGGLVQAGGSLRLSCAASGYTFRSYMGWYRQAPGKEREFVADISTSVTNTYYADSVKGRFTISRDNAKNTVYLQMNSLKPEDTAVYYCAAGVQSVYNGEPGIILEFDYWGQGTQVTVSS | low polyreactivity
QVQLVESGGGLVQAGGSLRLSCAASGSIIPGYTMGWYRQAPGKERELVAAITSSGGSTYYADSVKGRFTISRDNAKNTVYLQMNSLKPEDTAVYYCNAPFWGYRTSFSYPVVQRFDYWGQGTQVPVSS | low polyreactivity
QVQLVESGGGLVQAGGSLRLSCAASGSMFFWYVMGWYRQAPGKERELVASISSGGSTYYADSVKGRFTISRDNAKNTVYLQMNSLKPEDTAVYYCNAKSWSPAKSFSFFRFDYWGQGTQETVSS | low polyreactivity
QVQLVESGGGLVQAGGSLRLSCAASGLILSSNTMGWYRQAPGKERELVARIRRNDGNTYYADSVKGRFTISRDNAKNTVYLQMNSLKPEDTAVYYCAQYLAIGYYWGQGTQVTVSS | low polyreactivity
QVQLVESGGGLVQAGGSLRLSCAASGRIFGIYAMGWYRQAPGKERELVAVITRGDRTYADSVKGRFTISRDNAKNTVYLQMNSLKTEDTAVYYCNADTGYRFDYWGQGTQVTVSS | high polyreactivity
QVQLVESGGGLVHAGGSLRLSCSASGSTLRFNAMGWYRQAPGKVREFVATITRRGGSTYYADSEKGRFTISRDNAKNTVYLQMNSLKPEDTAVYYCAADRGGYSVLGGYWGQGTQVTVSS | high polyreactivity
QVQLHESGGGLVQEGGSQRLSCAASGNIFYTYAMRWYRHAPGKEREFDATINHGTSINYADSVKGRFTISRDNAKNTVYLQMNSLKPEDTAVYYCAADLSWTDNLFYWGQGTQVTVSS | low polyreactivity
QVQLVESGGGLVQAGGSLRLSCAASGSTFKTYVMGWYRQAPGKERELVAGISDSGGTTYYADSVKGRFTISRDNAKNTVYLQMNSLKPEDTAVYFCNAAFGVYVATGDSFPWHKKFGYWGQGTQVTVSS | high polyreactivity
QVQLVESVGGLVQAGGSLRLSCAASGFTFSTNAMGWYRQAPGKERELVAAISRGGSTNYADSVKGRFTISRDNAKNTVYLQMNSLKPEDTAVYYCNAYLSPDEEEYYWGQGTQVTVSS | low polyreactivity
QVQLVESGGGLVQAGGSLRLSCAASGSTFVKNVMGWYRQAPGKERELVAGITRGGSTYYADSVKGRFTISRDNAKNTVYLQMNSLKPEDTAVYYCNRVRYPSYDYWGQGTQVTVSS | high polyreactivity
QVQLEESGGGIVQAGGSLRLSCAASGRTFKLNAMGLYRQAPGKERELVAAISRNGGSTYYADSVKGRFTISRDNAKNTVFLQMNSLKPEDTAVYYCAAVRHGVSLAGYYWGQGTQVTVSS | high polyreactivity
QVQLVESGGGLVQAGGSLRLSCAASGFTFYRNTMGWYRQAPGKERELVAAISTRDGSTYYADSVKGRFTISRDNAKYTVYLPMNSLKPEDTAVYYCAVLTYRGRFEYWGQGTQVTVSS | high polyreactivity
QVQLVESGGGLVQAGGSLGLSCAASGRTFDDYSMGWYRQAPGKEMEFVAGITDNGGGTNYADSVKGRFTISRDNAMNTVYLQMNSLKPEDTAVYYCNAASDDFFPGRSTYGRDYWGQGTQVTVSS | low polyreactivity
HVQLVESGGGLVQAGGSLRLSCAASGSTFSSYAMGWYRQAPGQERELVAAITGGGANTYYADSVKGRFTISRDNAKNTVYLQMNSLKPEDTAVYYCNARSGYLHSKWTGYYWGQGTQVTVSS | low polyreactivity
QVQLVESGGGLVQAGGSLRLSCAASGRIFYSNTMGWYRQAPGKERELVAGITSSGGSTYYADSVKGRFTISRDNAKYTVYLQMNSLKPEDTAVYYCATSSVAEAKYVTEGTFDYWGQGTQVTVSS | low polyreactivity

Sequence | polyreactivity (PSR sort gate)
QVQLVESGGGLVQAGGSLRLSCAASGGILYHYAMGWYRQAPGIERELVAAIRWSGGSTYYADSVKGRFTISRDNAKNTVYLQMNSLKPEDTAVYYCAADVYYYHVLDFDYWGQGTQVTVSS | low polyreactivity
QVQLVETGGGLVQAGGSLRLSCAASGFTLYYYARGWYRQAPGKERELVAAITARGVSTYADSVKGRFTISRDNAKNTVYLQMNSLKPEDTAVYYCAADRRYNVIGEFGYWGQGTQVTVSS | low polyreactivity
QVQLVESGGGLVQAGGSLRLSCAASGRIFYYYAMGWYRQAPGKERELVAAISQRGGRTYYADSVKGRFTISRDIAKNTVYLQMNSLIPEDTAVYYCNAYPVYGRYTHYGYGHWGQGTKVTVSS | high polyreactivity
QVQLVESGGGLVQAGGSLRLSCAASGLTFIPNAMGWYREAPGKERELVAAISGTGGSTYYADSVKGRFTISRDNAKNTVYLLMNSLKPEDTAVYYCAARRRYKSGYWGQGTQVTVSS | high polyreactivity
QVQLVESGGGLVKAGGSLRLSCAASGITFYEYAMGWYRQAPGKERELVAAITTGGTTNYADSVKGRFTISRDNAKNTVYLQMNSLKPEDTAVYYCAKDLDSGGRGYYWGQGTQVTVSS | low polyreactivity
QVQLVESGGGLVQAGGSLRLSCAASGITFGDYTMGWYRQAPGKERELVAGINWSGDGTYYADSVKGRFTISRDNAKNTVYLQMNSLKPEDTAVYYCAAETFYDYGGYDYWGQGTQVTVSS | low polyreactivity
QVQLVESGGGLVQAGGSLPLTCAASGRIFGVYAMGWYRQAPGKERELVASISWSGSSTYYADSVKGRFTISRDNEKNTVYLQMNSLKPEDTAVYYCAADANHYRYGGGYWGQGTQVTVSS | low polyreactivity
QVQLVESGGGLVQAGGSLRLSCAASGRNLLYYGMGWYRQAPGKERELVAVISRGGSTYYADSVKGRFTISRDNAKNTVYLQMNSLKPEDTAVYYCAKRIYYGGVATKSLMDYWGQGTQVTVSS | high polyreactivity
QVQLVESGGGLVQAGGSLRLSCAASGFTLRSNAMGWYRQAPGKERELVASITDGTSTNYADSVKGRFTISRDNAKNTVYLQMNSLKPEDTAVYYCATRHPARRDYWGQGTQVTVSS | low polyreactivity
QVQLVESGGGLVQAGGSLRLSSAASGSIFSDYAMGWYRQAPGKERELVAAISGTGGGTYYADSVKGRFTISRDNAKNTVYLQMNSLKPEDTAVYYCAADYVFAWWGDYYWGQGTQVTVSS | high polyreactivity
QVQLVESGGGLVQAGGSLRISCAASGFTFYTNAMGWYIQAPGKERELVAAISSGGSTNYADSVKGRFTISRDNAKNTVYLQMNSLQPEDSAVYYCAARRGYWGQGTQVTVSS | high polyreactivity
QVQLVESGGGLVQAGGSLRLSCAASGSTFRHYAMGLYRQAPGKERELVAAISSTGGSTYYADSVKGRFTISRDNAKNTVYLQMNSLKPEDTAVYYCAASPYGFRRNYYWGQGTQVTVSS | high polyreactivity
QVQLVESGGGLVQAGGSLRLSCAASGSIFRVNAMGWYRQAPGKERELVAAITDGGITNYADSVKGRFTISRDNAKNTVYLQMNSLKPEETAVYYCAADTDRDFHYVVPTYDYWGQGTQVTVSS | low polyreactivity
QVQLVESGGGLVQAGGSLRLSCAASGITLSLYAMGWYRQAPGKERELVAAISRGGGRTYYADSVKGRFTISRDNAKNTVYLQMNSLKPEDTAVYYCNAYRRSYRWYGDLGEYWGQGTQVTVSS | high polyreactivity
QVQLVESGGGLVQAAGSLRLSCAASGSIFTYYAKGCYRQATRKERELVATINRIGGNTYDADSVKGRFTLSSDNAKNTVYLQMNRLKPEDNAVYYCAAKPTYRGYGYGSWGQGTQVTVSS | low polyreactivity
QVQLVESGGGLVQAGGSLRLSCAASGSIFRWYAMGWYRQAPGKERDLVAAITWSGGRTYYADSVKGRFTISRDNAKNTVYLQMNSLKPEDTAVYDCAKPALVTSYRVGYNYWGQGTQVTVSS | high polyreactivity
QVQLVESGGGLVQAGGSLRLSCAASGITFQDYAMGWYRQAPGKERELVAAISKSGGSTYYADSVKGRFTISRDNAKNTVYLQINSLKPEDTAVYYCATRYLYSNRAYDYWGQGKQVTVSS | high polyreactivity
QVQLVESGGGLVQAGGSLRLSCAASGYIYIRNAMGWYRQAPGKERELVAAISCTGGSTYYADSVKGRFTISRDNAKNTVYLQMKILKPEDTAVYYCNKYYRAWLLWDYGYWGQGTQVTVSS | high polyreactivity
QVQHVESGGGLVQAGCSLRLSCAASGRIFRLYAMGWYRQARGKERELVAAISSRGGDTYADSVKGRFTISRDNAKNTVYLQMNSLKPEDTAVYYCNAVIYYPYKYGVWYYEYDYWGQGTQVTVSS | low polyreactivity
QVQLVESGGGLVQAGGSLRLSCAASGIIFVDYVMGWYRQAPGKERELVAAITYTGGSTYYADSVKGRFTISRDNAKNTVYLQMNSLKPEDTAVYYCAARRKHRFFPAYYYWGQGTQVTVSS | high polyreactivity
